Test results taken from publication PMC6357863, “Dithiocarbamate-inspired side chain stapling chemistry for peptide drug design” (Chemical Science, 2018).
pKd: −log10 of the molar value.

What was measured:
circular dichroism = settings: phosphate buffer (PB); pH 7.2; 20 °C; 10-50 uM
[1] = target: T1, synthetic 24–108MDMX (p53-binding domain) (Homo sapiens, UniProt O15151); assay: SPR-based competition binding assay on 15–29p53-immobilized CM5 chip, MDMX; settings: 25 °C, MDMX at 100 nM, 10 mM HEPES, 150 mM NaCl, 0.005% P20, pH 7.4, free MDMX quantified on 15–29p53 chip, two replicates, three independent experiments
T1 construct: made in house; host or cells: total chemical synthesis (native chemical ligation of 24-75 thioester with 76-108); no expression host
T1 sequence (O15151 24-108): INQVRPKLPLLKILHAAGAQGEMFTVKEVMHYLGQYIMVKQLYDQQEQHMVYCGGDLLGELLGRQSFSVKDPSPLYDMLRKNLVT
Experimental: and three independent experiments were performed.
Fluorescence polarization (FP).
As an additional positive control, we
Tecan Infinite M1000 plate reader. […]
additional incubation for 64 hours.
Circular Dichroism (CD) Spectroscopy. […]
from 10-50 μM. […] The spectra were […]
of each peptide was calculated as reported previously. 12
Stability in GSH. […] RP-

Which results are given for `CC(=O)N[C@H]1CCCCNC(=S)SC[C@@H](C(=O)N[C@@H](Cc2ccc(O)cc2)C(=O)N[C@@H](Cc2c[nH]c3ccccc23)C(=O)N[C@@H](CC(N)=O)C(=O)N[C@@H](CC(C)C)C(=O)N[C@@H](CC(C)C)C(=O)N[C@@H](CO)C(=O)N2CCC[C@H]2C(N)=O)NC(=O)[C@H](C)NC(=O)[C@H](Cc2ccccc2)NC(=O)[C@H](CO)NC1=O` [PMI(1,5)-a]?
helicity (circular dichroism): 6.5%; pKd [1]: < 6.30
